Assay results taken from the supplement of paper PMC10567573.

B1: CDC25B (parent)
chain: FVDILESDLKDDDAVPPGMESLIS
B2: PTPN9 (parent)
chain: NKWTVQYNVSPLSWNVAVKFLMAR

Variants of: B1
Assay: protein stability index of a GFP-peptide fusion (GPS, HEK-293T) (PSI 1-6); higher = more stable
Conditions: c terminus: a fixed tail appended
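Note: lentivirally expressed fusions sorted by FACS into six bins by GFP to DsRed ratio, PSI derived from sequencing read proportions per bin multiplied by bin number.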

Variant	protein stability index
FVDRLESDLKDDDAVPPGMESLIS [I4R]	3.11
FVDNLESDLKDDDAVPPGMESLIS [I4N]	4.34
FVDKLESDLKDDDAVPPGMESLIS [I4K]	2
FVDQLESDLKDDDAVPPGMESLIS [I4Q]	3.75
FVDELESDLKDDDAVPPGMESLIS [I4E]	4.52
FVDLLESDLKDDDAVPPGMESLIS [I4L]	2.75
FVDMLESDLKDDDAVPPGMESLIS [I4M]	2.47
FVDWLESDLKDDDAVPPGMESLIS [I4W]	2.29
FVDCLESDLKDDDAVPPGMESLIS [I4C]	3.91
FVDYLESDLKDDDAVPPGMESLIS [I4Y]	2.52
FVDTLESDLKDDDAVPPGMESLIS [I4T]	3.37
FVDGLESDLKDDDAVPPGMESLIS [I4G]	3.46
FVDSLESDLKDDDAVPPGMESLIS [I4S]	4.05
FVDVLESDLKDDDAVPPGMESLIS [I4V]	3.13
FVDALESDLKDDDAVPPGMESLIS [I4A]	4.18
FVDDLESDLKDDDAVPPGMESLIS [I4D]	4.54
FVDHLESDLKDDDAVPPGMESLIS [I4H]	3
FVDFLESDLKDDDAVPPGMESLIS [I4F]	2.8
FVDPLESDLKDDDAVPPGMESLIS [I4P]	4.03
FVDILASDLKDDDAVPPGMESLIS [E6A]	2.04
FVDILWSDLKDDDAVPPGMESLIS [E6W]	2.32
FVDILNSDLKDDDAVPPGMESLIS [E6N]	3.13
FVDILDSDLKDDDAVPPGMESLIS [E6D]	2.88

Variant	protein stability index
FVDILTSDLKDDDAVPPGMESLIS [E6T]	2.58
FVDILISDLKDDDAVPPGMESLIS [E6I]	1.93
FVDILPSDLKDDDAVPPGMESLIS [E6P]	2.37
FVDILGSDLKDDDAVPPGMESLIS [E6G]	2.31
FVDILRSDLKDDDAVPPGMESLIS [E6R]	2.2
FVDILHSDLKDDDAVPPGMESLIS [E6H]	2.55
FVDILMSDLKDDDAVPPGMESLIS [E6M]	2.38
FVDILLSDLKDDDAVPPGMESLIS [E6L]	2.45
FVDILYSDLKDDDAVPPGMESLIS [E6Y]	2.33
FVDILKSDLKDDDAVPPGMESLIS [E6K]	2.84
FVDILVSDLKDDDAVPPGMESLIS [E6V]	2.19
FVDILQSDLKDDDAVPPGMESLIS [E6Q]	2.89
FVDILFSDLKDDDAVPPGMESLIS [E6F]	2.68
FVDILSSDLKDDDAVPPGMESLIS [E6S]	2.54
FVDILCSDLKDDDAVPPGMESLIS [E6C]	2.13
FVDILESWLKDDDAVPPGMESLIS [D8W]	2.54
FVDILESSLKDDDAVPPGMESLIS [D8S]	2.38
FVDILESLLKDDDAVPPGMESLIS [D8L]	2.9
FVDILESELKDDDAVPPGMESLIS [D8E]	2.89
FVDILESKLKDDDAVPPGMESLIS [D8K]	2.48
FVDILESVLKDDDAVPPGMESLIS [D8V]	2.7
FVDILESQLKDDDAVPPGMESLIS [D8Q]	2.67
FVDILESMLKDDDAVPPGMESLIS [D8M]	2.55

Variant	protein stability index
FVDILESYLKDDDAVPPGMESLIS [D8Y]	2.62
FVDILESFLKDDDAVPPGMESLIS [D8F]	2.32
FVDILESNLKDDDAVPPGMESLIS [D8N]	3.18
FVDILESCLKDDDAVPPGMESLIS [D8C]	2.15
FVDILESHLKDDDAVPPGMESLIS [D8H]	2.79
FVDILESALKDDDAVPPGMESLIS [D8A]	2.58
FVDILESRLKDDDAVPPGMESLIS [D8R]	2.7
FVDILESPLKDDDAVPPGMESLIS [D8P]	2.31
FVDILESTLKDDDAVPPGMESLIS [D8T]	2.66
FVDILESILKDDDAVPPGMESLIS [D8I]	2.56
FVDILESGLKDDDAVPPGMESLIS [D8G]	2.93
FVDIPESDLKDDDAVPPGMESLIS [L5P]	3.75
FVDIIESDLKDDDAVPPGMESLIS [L5I]	2.46
FVDICESDLKDDDAVPPGMESLIS [L5C]	3.02
FVDISESDLKDDDAVPPGMESLIS [L5S]	4.58
FVDIHESDLKDDDAVPPGMESLIS [L5H]	3.7
FVDIGESDLKDDDAVPPGMESLIS [L5G]	3.73
FVDIKESDLKDDDAVPPGMESLIS [L5K]	3.63
FVDIYESDLKDDDAVPPGMESLIS [L5Y]	2.8
FVDITESDLKDDDAVPPGMESLIS [L5T]	3.51
FVDIMESDLKDDDAVPPGMESLIS [L5M]	3.57
FVDINESDLKDDDAVPPGMESLIS [L5N]	3.81
FVDIQESDLKDDDAVPPGMESLIS [L5Q]	3.67

Variant	protein stability index
FVDIVESDLKDDDAVPPGMESLIS [L5V]	3.03
FVDIRESDLKDDDAVPPGMESLIS [L5R]	2.94
FVDIAESDLKDDDAVPPGMESLIS [L5A]	3.84
FVDIWESDLKDDDAVPPGMESLIS [L5W]	1.85
FVDIDESDLKDDDAVPPGMESLIS [L5D]	4.61
FVDIFESDLKDDDAVPPGMESLIS [L5F]	2.35
FVDIEESDLKDDDAVPPGMESLIS [L5E]	4.46
FVDILEIDLKDDDAVPPGMESLIS [S7I]	2.3
FVDILELDLKDDDAVPPGMESLIS [S7L]	2.21
FVDILEKDLKDDDAVPPGMESLIS [S7K]	2.6
FVDILEEDLKDDDAVPPGMESLIS [S7E]	3.79
FVDILEVDLKDDDAVPPGMESLIS [S7V]	2.17
FVDILEADLKDDDAVPPGMESLIS [S7A]	2.79
FVDILEQDLKDDDAVPPGMESLIS [S7Q]	3.19
FVDILENDLKDDDAVPPGMESLIS [S7N]	2.57
FVDILERDLKDDDAVPPGMESLIS [S7R]	2.47
FVDILEGDLKDDDAVPPGMESLIS [S7G]	3.22
FVDILEMDLKDDDAVPPGMESLIS [S7M]	2.6
FVDILEHDLKDDDAVPPGMESLIS [S7H]	2.6
FVDILEWDLKDDDAVPPGMESLIS [S7W]	1.36
FVDILEFDLKDDDAVPPGMESLIS [S7F]	1.9
FVDILEDDLKDDDAVPPGMESLIS [S7D]	3.67
FVDILEYDLKDDDAVPPGMESLIS [S7Y]	2.77

Variant	protein stability index
FVDILETDLKDDDAVPPGMESLIS [S7T]	2.85
FVDILECDLKDDDAVPPGMESLIS [S7C]	3.23
FVDILEPDLKDDDAVPPGMESLIS [S7P]	2.83
FCDILESDLKDDDAVPPGMESLIS [V2C]	3.65
FADILESDLKDDDAVPPGMESLIS [V2A]	4.51
FSDILESDLKDDDAVPPGMESLIS [V2S]	5.04
FRDILESDLKDDDAVPPGMESLIS [V2R]	4.31
FQDILESDLKDDDAVPPGMESLIS [V2Q]	3.98
FHDILESDLKDDDAVPPGMESLIS [V2H]	4.68
FKDILESDLKDDDAVPPGMESLIS [V2K]	4.67
FIDILESDLKDDDAVPPGMESLIS [V2I]	3.8
FLDILESDLKDDDAVPPGMESLIS [V2L]	3.73
FGDILESDLKDDDAVPPGMESLIS [V2G]	3.81
FMDILESDLKDDDAVPPGMESLIS [V2M]	4.76
FWDILESDLKDDDAVPPGMESLIS [V2W]	3.32
FDDILESDLKDDDAVPPGMESLIS [V2D]	5.14
FTDILESDLKDDDAVPPGMESLIS [V2T]	4.43
FYDILESDLKDDDAVPPGMESLIS [V2Y]	4.29
FEDILESDLKDDDAVPPGMESLIS [V2E]	5.29
FPDILESDLKDDDAVPPGMESLIS [V2P]	4.8
FNDILESDLKDDDAVPPGMESLIS [V2N]	4.96
FFDILESDLKDDDAVPPGMESLIS [V2F]	4.08
FVDILESDCKDDDAVPPGMESLIS [L9C]	3.05

Variant	protein stability index
FVDILESDAKDDDAVPPGMESLIS [L9A]	3.09
FVDILESDEKDDDAVPPGMESLIS [L9E]	3.39
FVDILESDDKDDDAVPPGMESLIS [L9D]	3.21
IVDILESDLKDDDAVPPGMESLIS [F1I]	4.33
KVDILESDLKDDDAVPPGMESLIS [F1K]	5.17
HVDILESDLKDDDAVPPGMESLIS [F1H]	5.4
MVDILESDLKDDDAVPPGMESLIS [F1M]	4.59
VVDILESDLKDDDAVPPGMESLIS [F1V]	4.08
WVDILESDLKDDDAVPPGMESLIS [F1W]	2.5
RVDILESDLKDDDAVPPGMESLIS [F1R]	4.96
GVDILESDLKDDDAVPPGMESLIS [F1G]	5.23
QVDILESDLKDDDAVPPGMESLIS [F1Q]	5.4
EVDILESDLKDDDAVPPGMESLIS [F1E]	5.37
PVDILESDLKDDDAVPPGMESLIS [F1P]	5.46
YVDILESDLKDDDAVPPGMESLIS [F1Y]	3.83
SVDILESDLKDDDAVPPGMESLIS [F1S]	5.39
CVDILESDLKDDDAVPPGMESLIS [F1C]	4.49
TVDILESDLKDDDAVPPGMESLIS [F1T]	5.31
NVDILESDLKDDDAVPPGMESLIS [F1N]	5.3
AVDILESDLKDDDAVPPGMESLIS [F1A]	5
DVDILESDLKDDDAVPPGMESLIS [F1D]	5.24
LVDILESDLKDDDAVPPGMESLIS [F1L]	4.81
FVFILESDLKDDDAVPPGMESLIS [D3F]	1.6

Variant	protein stability index
FVPILESDLKDDDAVPPGMESLIS [D3P]	2.93
FVMILESDLKDDDAVPPGMESLIS [D3M]	1.92
FVYILESDLKDDDAVPPGMESLIS [D3Y]	2.15
FVHILESDLKDDDAVPPGMESLIS [D3H]	2.91
FVKILESDLKDDDAVPPGMESLIS [D3K]	2.65
FVVILESDLKDDDAVPPGMESLIS [D3V]	1.86
FVRILESDLKDDDAVPPGMESLIS [D3R]	2.12
FVSILESDLKDDDAVPPGMESLIS [D3S]	2.96
FVLILESDLKDDDAVPPGMESLIS [D3L]	1.93
FVNILESDLKDDDAVPPGMESLIS [D3N]	2.81
FVQILESDLKDDDAVPPGMESLIS [D3Q]	3.04
FVTILESDLKDDDAVPPGMESLIS [D3T]	2.39
FVGILESDLKDDDAVPPGMESLIS [D3G]	2.83
FVAILESDLKDDDAVPPGMESLIS [D3A]	2.65
FVWILESDLKDDDAVPPGMESLIS [D3W]	1.91
FVEILESDLKDDDAVPPGMESLIS [D3E]	3.46
FVCILESDLKDDDAVPPGMESLIS [D3C]	2.4
FVIILESDLKDDDAVPPGMESLIS [D3I]	2.75

Variants of: B2
Assay: as above
Conditions: c terminus: a fixed tail appended

Variant	protein stability index
NKWTVQYNYSPLSWNVAVKFLMAR [V9Y]	2.1
NKWTVQYNPSPLSWNVAVKFLMAR [V9P]	1.6
NKWTVQYNISPLSWNVAVKFLMAR [V9I]	4.2
NKWTVQYNRSPLSWNVAVKFLMAR [V9R]	1.55
NKWTVQYNVYPLSWNVAVKFLMAR [S10Y]	1.82
NKWTVQYNVHPLSWNVAVKFLMAR [S10H]	2.23
NKWTVQYNVSPQSWNVAVKFLMAR [L12Q]	1.72
NKWTVQYNVSPLSWNLAVKFLMAR [V16L]	2.38
NKWTVQYNVSPLSWNYAVKFLMAR [V16Y]	2.6
NKWTKQYNVSPLSWNVAVKFLMAR [V5K]	3.16
NKWTCQYNVSPLSWNVAVKFLMAR [V5C]	1.83
NKFTVQYNVSPLSWNVAVKFLMAR [W3F]	2.59
NKWTVQYNVSPLSWNVAVMFLMAR [K19M]	2.06
NKWTVQYNVSPLSWNVAVDFLMAR [K19D]	3.33
NKWTVQYNVSPLSWNVAVKFLMDR [A23D]	2.21
NKWTVQYNVSPLSWNVAVKFLMCR [A23C]	1.95

Variant	protein stability index
HKWTVQYNVSPLSWNVAVKFLMAR [N1H]	2.3
NKWAVQYNVSPLSWNVAVKFLMAR [T4A]	2.55
NRWTVQYNVSPLSWNVAVKFLMAR [K2R]	1.66
NKWTVQYNVSPLSWNVAVKFSMAR [L21S]	3.66
NKWTVQYNVSPLSWNVAVKFEMAR [L21E]	1.9
NKWTVQYNVSPLSWNVAVKFYMAR [L21Y]	2.89
NKWTVQYNVSPLSWNVAVKFDMAR [L21D]	2.03
NKWTVQYNVSPLSWNVAHKFLMAR [V18H]	1.78
NKWTVQYNVSPLSWNVALKFLMAR [V18L]	2.72
NKWTVQYNVSPLSWNVAYKFLMAR [V18Y]	2.04
NKWTVVYNVSPLSWNVAVKFLMAR [Q6V]	2.79
NKWTVTYNVSPLSWNVAVKFLMAR [Q6T]	2.6
NKWTVQYNVSALSWNVAVKFLMAR [P11A]	2.01
NKWTVQYNVSPLSDNVAVKFLMAR [W14D]	1.62
NKWTVQYNVSPLSNNVAVKFLMAR [W14N]	2.06
NKWTVQYNVSPLSVNVAVKFLMAR [W14V]	2.4
